The test has as its target Carcinoembryonic antigen (CEA) (human) (UniProt P06731). The test can be described thus: cell-based or functional assay.

The results in this text go back to patent publication US20220017623A1, “TREATMENT OF CANCER USING A CEA CD3 BISPECIFIC ANTIBODY AND A WNT SIGNALING INHIBITOR” (Hoffmann-La Roche Inc., priority 2019, published 2022).

Sequence of Carcinoembryonic antigen (CEA) (human) (P06731 35-702): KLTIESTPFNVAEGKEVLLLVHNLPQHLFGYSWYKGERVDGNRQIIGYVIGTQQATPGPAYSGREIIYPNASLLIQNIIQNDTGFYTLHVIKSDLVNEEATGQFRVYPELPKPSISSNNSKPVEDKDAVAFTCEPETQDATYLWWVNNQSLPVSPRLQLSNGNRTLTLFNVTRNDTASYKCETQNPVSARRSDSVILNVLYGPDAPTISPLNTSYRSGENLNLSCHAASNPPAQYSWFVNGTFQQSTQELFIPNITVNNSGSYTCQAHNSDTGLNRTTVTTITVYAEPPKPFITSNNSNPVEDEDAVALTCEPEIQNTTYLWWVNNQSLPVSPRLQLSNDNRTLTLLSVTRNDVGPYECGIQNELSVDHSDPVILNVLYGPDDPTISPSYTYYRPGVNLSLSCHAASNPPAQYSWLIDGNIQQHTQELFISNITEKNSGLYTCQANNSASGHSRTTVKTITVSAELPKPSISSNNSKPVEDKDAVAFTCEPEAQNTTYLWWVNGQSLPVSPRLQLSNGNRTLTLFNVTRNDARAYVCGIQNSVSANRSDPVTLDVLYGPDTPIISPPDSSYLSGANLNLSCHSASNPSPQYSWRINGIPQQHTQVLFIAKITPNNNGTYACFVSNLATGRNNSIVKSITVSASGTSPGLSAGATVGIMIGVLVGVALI

For the substance cibisatamab (bispecific antibody), the Pearson correlation of growth reduction with the fraction of CEAhi cancer cells in each PDO came to 0.915 r.
